# Source: publication doi:10.1101/2024.10.30.621104 (bioRxiv, 2024)
# B1: HSV-1 origin binding protein UL9 labelled at its C-terminus with Atto647N through a ybbR-tag (enzyme, Herpes simplex virus type 1, UniProt P10193 1-851, looked up)
# chain: MPFVGGAESGDPLGAGRPIGDDECEQYTSSVSLARMLYGGDLAEWVPRVHPKTTIERQQHGPVTFPNASAPTARCVTVVRAPMGSGKTTALIRWLREAIHSPDTSVLVVSCRRSFTQTLATRFAESGLVDFVTYFSSTNYIMNDRPFHRLIVQVESLHRVGPNLLNNYDVLVLDEVMSTLGQLYSPTMQQLGRVDALMLRLLRICPRIIAMDATANAQLVDFLCGLRGEKNVHVVVGEYAMPGFSARRCLFLPRLGTELLQAALRPPGPPSGPSPDASPEARGATFFGELEARLGGGDNICIFSSTVSFAEIVARFCRQFTDRVLLLHSLTPLGDVTTWGQYRVVIYTTVVTVGLSFDPLHFDGMFAYVKPMNYGPDMVSVYQSLGRVRTLRKGELLIYMDGSGARSEPVFTPMLLNHVVSSCGQWPAQFSQVTNLLCRRFKGRCDASACDTSLGRGSRIYNKFRYKHYFERCTLACLSDSLNILHMLLTLNCIRVRFWGHDDTLTPKDFCLFLRGVHFDALRAQRDLRELRCRDPEASLPAQAAETEEVGLFVEKYLRSDVAPAEIVALMRNLNSLMGRTRFIYLALLEACLRVPMATRSSAIFRRIYDHYATGVIPTINVTGELELVALPPTLNVTPVWELLCLCSTMAARLHWDSAAGGSGRTFGPDDVLDLLTPHYDRYMQLVFELGHCNVTDGLLLSEEAVKRVADALSGCPPRGSVSETDHAVALFKIIWGELFGVQMAKSTQTFPGAGRVKNLTKQTIVGLLDAHHIDHSACRTHRQLYALLMAHKREFAGARFKLRVPAWGRCLRTHSSSANPNADIILEAALSELPTEAWPMMQGAVNFSTL
# modifications: Atto647N fluorophore on the C-terminus through a ybbR-tag
# Biological target: the molecule itself
# Assay: single-molecule photobleaching step counting
protein,measurement,value
B1,stoichiometry N,2
